Source: article PMC8173604 (Cell, 2021)

Biological target: purified HLA-A*02:01 MHC molecule (human | )
Assay: radioligand binding

Binder | IC50 [nM]
GLITLSYHL [GLITLSYHL, HLA-I peptide from S.iORF1/2] | < 0.5
MLLGSMLYM [MLLGSMLYM, HLA-I peptide from S.iORF1/2] | < 0.5
